Positions count from the first letter of the chain named. Names and notes keep the numbering of the source.

For orientation: Kd means the concentration at which binding is half-saturated.

Common to all, as to conditions: both partners purified
Test [1] concerns the target T1, CD47 extracellular domain (biotin (enzymatically biotinylated; stated for the SPR experiment)).
T1 construct: CD47 extracellular domain; bought protein Abcam ab174029; source: bought: Abcam (ab174029), enzymatically biotinylated
Description: ELISA; indirect ELISA; CD47^ext coated at 30 ug/mL overnight at 4 °C; serially diluted VHH, 2.5 h at 37 °C; detected with HRP-conjugated anti-His tag mAb, OD450. (In general: ELISA stands for enzyme-linked immunosorbent assay.)

Test [2] deals with T1, CD47 extracellular domain. Description: ELISA; indirect ELISA after heat treatment of the VHH (10 min at six temperatures, 4 to 70 °C); CD47^ext coated at 30 ug/mL; VHH at 30 ug/mL, 2 h at 37 °C; detected with HRP-conjugated anti-His tag mAb, OD450.
For test [3], the target named is T1, CD47 extracellular domain. Description: SPR; Biacore 3000, 25 °C; ~350 RU enzymatically biotinylated CD47^ext immobilised on a CM5 chip, VHHs flowed over at 40 uL/min in 10 mM HEPES, 150 mM NaCl, 3 mM EDTA, 0.05% P20, pH 7.4; 1:1 Langmuir model; duplicates. (In SPR one partner is held on a chip, and binding of the other changes the refractive index at the surface.)

T1 sequence (chain, as listed by the source): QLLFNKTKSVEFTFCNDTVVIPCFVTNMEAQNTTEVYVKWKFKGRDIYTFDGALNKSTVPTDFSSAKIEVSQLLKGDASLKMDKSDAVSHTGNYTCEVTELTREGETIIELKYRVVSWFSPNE

B1: Nb02 quadruple mutant M7 (G107W, T108H, S109V, F110A) (VHH)
VHH: EVQLQASGGGLVQAGGSLRLSCAASGFTNERSQNMGWFRQAPGKEREGVACISSRVVECWYADSVKGRFTISRDNAKNTVYLQMNSLKPEDTAVYYCAAPRAITWHVAVGEHMCDYWGQGTQVTVSS
notes: also called best mutant; lead variant; source: E. coli TransB (DE3), purified (Ni2+ IMAC, HisTrap HP); not shown: His6, C-terminal, kept
Regarding B1, in test [1], the “ELISA signal relative to M0 at 5.625 ug/mL” value was determined as 158% and the “ELISA signal relative to M0 at 360 ug/mL” value was around 120%. Besides, the “OD450 at 70 °C relative to 4 °C” value in test [2] was around 45%. The molecule further showed a Kd in test [3] of 3.2 ± 1 nM.

B2: Nb02 mutant M4 (VHH)
VHH: B1 VHH with S53Q, W105G, V107S
notes: the text says only that M4 includes F110A; One of five triple and two quadruple mutants combined from the round 1 mutations; source: E. coli TransB (DE3), purified (Ni2+ IMAC, HisTrap HP)
For B2, the Kd in test [3] stood at 57 ± 7.3 nM.

B3: Nb02 mutant M5 (VHH)
VHH: B1 VHH with A108F
notes: One of five triple and two quadruple mutants combined from the round 1 mutations; source: E. coli TransB (DE3), purified (Ni2+ IMAC, HisTrap HP)
Take B3: binding in test [3] was put at a Kd of 25.3 ± 3.7 nM. Compared with the last molecule, the Kd is about 2.3-fold lower.

B4: Nb02 mutant M2 (VHH)
VHH: B1 VHH with S53Q, H106T, A108F
notes: as for B3
For the molecule B4, the Kd in test [3] is 11.4 ± 2.1 nM.

B5: Nb02 mutant M6 (VHH)
VHH: B1 VHH with S53Q, A108F
notes: as for B3
Take B5: the Kd in test [3] came to 58.2 ± 4.5 nM.

B6: Nb02 mutant M3 (VHH)
VHH: B1 VHH with S53Q, W105G, A108F
notes: as for B3
For the molecule B6, the Kd in test [3] was found to be 69.5 ± 6.1 nM.

B7: Nb02 mutant M1 (VHH)
VHH: B1 VHH with S53Q, V107S, A108F
notes: One of five triple and two quadruple mutants combined from the round 1 mutations (S55Q, G107I, G107W, T108H, S109E, S109V, F110A); source: E. coli TransB (DE3), purified (Ni2+ IMAC, HisTrap HP)
For B7, the Kd in test [3] stood at 74.5 ± 5.5 nM.

These data come from article PMC6747709, “Homology Modeling-Based in Silico Affinity Maturation Improves the Affinity of a Nanobody” (International Journal of Molecular Sciences, 2019).
